Changes are numbered by the printed parent chain.
B1: monoclonal antibody 39.29 NWPP (antibody, V domains shown)
VH: EVQLVESGGGVVQPGKSLRLSCAASGLTFSSYAVHWVRQAPGKGLEWVTLISYDGANQYYADSVKGRFTISRDNSKNTVYLQMNSLRPEDTAVYYCAVPGPVFGIFPPWSYFDNWGQGILVTVSS
VL: EIVLTQSPATLSVSPGERATLSCRASQVISHNLAWYQQKPGQAPRLLIYGASTRASGIPARFSGSGSGTDYTLTITSLQSEDFAVYYCQHYSNWPPRLTFGGGTKVEIK
B2: monoclonal antibody 39.29 NCv1 (antibody, V domains shown)
VH: B1 VH with E1Q, L18P, L27P
VL: B1 VL with S80P

How the values were obtained:
Assay in all cases: cell-based or functional assay
[1] = molecular target: hemagglutinin of influenza A virus H3N2 A/Port Chalmers/1/1973 (influenza A virus A/Port Chalmers/1/1973 (H3N2))
[2] = molecular target: hemagglutinin of influenza A virus H3N2 A/Hong Kong/1/1968 (influenza A virus A/Hong Kong/1/1968 (H3N2)) (UniProt Q91MA7)
[3] = molecular target: hemagglutinin of influenza A virus H3N2 A/Aichi/2/1968 (influenza A virus A/Aichi/2/1968 (H3N2)) (UniProt P03437)

Binder	in vitro IC50 (neutralization of virus infection of MDCK cells) [1]	in vitro IC50 (neutralization of virus infection of MDCK cells) [2]	in vitro IC50 (neutralization of virus infection of MDCK cells) [3]
B1	2.2 nM	45.1 nM	35 nM
B2	2.9 nM		35 nM

Source: US20190023770A1
